# Data taken from PMC13107553.
# Target: Bicarbonate Transporter Related protein-1 (BTR1), human (human) (UniProt Q8NBS3)
# Experiment: cryo-EM structure; BTR1 in LMNG/CHS micelle buffer; 140 mmol/L KCl, pH 7.5, 3.25 Å; further structures in 11 buffer conditions (KCl, NaCl, NH4Cl, NH4Cl + NaCl, boric acid; varying pH), 13 states, inward- and outward-facing
substance,measurement,value
"Bicarbonate Transporter Related protein-1 (BTR1), human (from UniProt Q8NBS3 1-875) (natural protein)",stoichiometry N,2
